Non-standard residues stand in square brackets, D forms with d. pY = N[C@@H](Cc1ccc(OP(=O)(O)O)cc1)C(=O)O
Biological target: T1, Fyn SH2 domain (142-248) (human, UniProt P06241 142-248, biotin (on the AviTag))
T1 construct: SH2 domain of human Fyn kinase, residues 142-248; source: E. coli C43(DE3) with BirA helper plasmid, purified (HisTrap, anion exchange, Ulp1 cleavage, SEC); not shown: His6-SUMO, N-terminal, cleaved; AviTag, C-terminal, kept
Experiment: fluorescence polarisation; competition mode; unlabelled phosphopeptide against 0.4 nM FITC-Ahx-GDG-pY-EEISPLLL-NH2 and 4.125 nM Fyn SH2, as printed (Tables S3 and S5)
Settings: both partners purified

T1 sequence (P06241 142-248): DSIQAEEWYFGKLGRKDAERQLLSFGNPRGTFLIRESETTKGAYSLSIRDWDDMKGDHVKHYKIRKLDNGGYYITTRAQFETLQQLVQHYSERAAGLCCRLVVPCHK

Row | Binder | Kd
1 | Ac-QSLEKS[pY]ELPDGG-NH2 (SMILES CC(=O)N[C@@H](CCC(N)=O)C(=O)N[C@@H](CO)C(=O)N[C@@H](CC(C)C)C(=O)N[C@@H](CCC(=O)O)C(=O)N[C@@H](CCCCN)C(=O)N[C@@H](CO)C(=O)N[C@@H](Cc1ccc(OP(=O)(O)O)cc1)C(=O)N[C@@H](CCC(=O)O)C(=O)N[C@@H](CC(C)C)C(=O)N1CCC[C@H]1C(=O)N[C@@H](CC(=O)O)C(=O)NCC(=O)NCC(N)=O, flank added to the 11-residue stretch (surmised: last residue of the library's constant GQSGQ); ACTB, human, around pY240; flank added to the 11-residue stretch (surmised: first residue of the library's constant GGQSG); source: synthetic peptide (SynPeptide, China)) [ACTB pY240] | 159 nM
2 | Ac-QSLEKS[pY]ELLDGG-NH2 (SMILES CC(=O)N[C@@H](CCC(N)=O)C(=O)N[C@@H](CO)C(=O)N[C@@H](CC(C)C)C(=O)N[C@@H](CCC(=O)O)C(=O)N[C@@H](CCCCN)C(=O)N[C@@H](CO)C(=O)N[C@@H](Cc1ccc(OP(=O)(O)O)cc1)C(=O)N[C@@H](CCC(=O)O)C(=O)N[C@@H](CC(C)C)C(=O)N[C@@H](CC(C)C)C(=O)N[C@@H](CC(=O)O)C(=O)NCC(=O)NCC(N)=O, flank added to the 11-residue stretch (surmised: last residue of the library's constant GQSGQ); ACTB, human, around pY240, natural variant P243L; flank added to the 11-residue stretch (surmised: first residue of the library's constant GGQSG); source: synthetic peptide (SynPeptide, China)) [ACTB pY240 P243L] | 141 nM
3 | Ac-QVEGIG[pY]DFIPTG-NH2 (SMILES CC[C@H](C)[C@H](NC(=O)CNC(=O)[C@H](CCC(=O)O)NC(=O)[C@@H](NC(=O)[C@H](CCC(N)=O)NC(C)=O)C(C)C)C(=O)NCC(=O)N[C@@H](Cc1ccc(OP(=O)(O)O)cc1)C(=O)N[C@@H](CC(=O)O)C(=O)N[C@@H](Cc1ccccc1)C(=O)N[C@H](C(=O)N1CCC[C@H]1C(=O)N[C@H](C(=O)NCC(N)=O)[C@@H](C)O)[C@@H](C)CC, flank added to the 11-residue stretch (surmised: last residue of the library's constant GQSGQ); CBS, human, around pY308; flank added to the 11-residue stretch (surmised: first residue of the library's constant GGQSG); source: synthetic peptide (SynPeptide, China)) [CBS pY308] | 126 nM
4 | Ac-QVEGIS[pY]DFIPTG-NH2 (SMILES CC[C@H](C)[C@H](NC(=O)CNC(=O)[C@H](CCC(=O)O)NC(=O)[C@@H](NC(=O)[C@H](CCC(N)=O)NC(C)=O)C(C)C)C(=O)N[C@@H](CO)C(=O)N[C@@H](Cc1ccc(OP(=O)(O)O)cc1)C(=O)N[C@@H](CC(=O)O)C(=O)N[C@@H](Cc1ccccc1)C(=O)N[C@H](C(=O)N1CCC[C@H]1C(=O)N[C@H](C(=O)NCC(N)=O)[C@@H](C)O)[C@@H](C)CC, flank added to the 11-residue stretch (surmised: last residue of the library's constant GQSGQ); CBS, human, around pY308, natural variant G307S; flank added to the 11-residue stretch (surmised: first residue of the library's constant GGQSG); source: synthetic peptide (SynPeptide, China)) [CBS pY308 G307S] | 185 nM
5 | Ac-QPIFEG[pY]ALPHAG-NH2 (SMILES CC[C@H](C)[C@H](NC(=O)[C@@H]1CCCN1C(=O)[C@H](CCC(N)=O)NC(C)=O)C(=O)N[C@@H](Cc1ccccc1)C(=O)N[C@@H](CCC(=O)O)C(=O)NCC(=O)N[C@@H](Cc1ccc(OP(=O)(O)O)cc1)C(=O)N[C@@H](C)C(=O)N[C@@H](CC(C)C)C(=O)N1CCC[C@H]1C(=O)N[C@@H](Cc1c[nH]cn1)C(=O)N[C@@H](C)C(=O)NCC(N)=O, flank added to the 11-residue stretch (surmised: last residue of the library's constant GQSGQ); ACTA1, human, around pY171; flank added to the 11-residue stretch (surmised: first residue of the library's constant GGQSG); also called ACTA1 pTyr Y171; source: synthetic peptide (SynPeptide, China)) [ACTA1 pY171] | 47.3 nM
6 | Ac-QSDQRR[pY]SLIDRG-NH2 (SMILES CC[C@H](C)[C@H](NC(=O)[C@H](CC(C)C)NC(=O)[C@H](CO)NC(=O)[C@H](Cc1ccc(OP(=O)(O)O)cc1)NC(=O)[C@H](CCCNC(=N)N)NC(=O)[C@H](CCCNC(=N)N)NC(=O)[C@H](CCC(N)=O)NC(=O)[C@H](CC(=O)O)NC(=O)[C@H](CO)NC(=O)[C@H](CCC(N)=O)NC(C)=O)C(=O)N[C@@H](CC(=O)O)C(=O)N[C@@H](CCCNC(=N)N)C(=O)NCC(N)=O, flank added to the 11-residue stretch (surmised: last residue of the library's constant GQSGQ); CLIP2, human, around pY972; flank added to the 11-residue stretch (surmised: first residue of the library's constant GGQSG); source: synthetic peptide (SynPeptide, China)) [CLIP2 pY972] | 78.5 nM
7 | Ac-QSDQRR[pY]SLIDPG-NH2 (SMILES CC[C@H](C)[C@H](NC(=O)[C@H](CC(C)C)NC(=O)[C@H](CO)NC(=O)[C@H](Cc1ccc(OP(=O)(O)O)cc1)NC(=O)[C@H](CCCNC(=N)N)NC(=O)[C@H](CCCNC(=N)N)NC(=O)[C@H](CCC(N)=O)NC(=O)[C@H](CC(=O)O)NC(=O)[C@H](CO)NC(=O)[C@H](CCC(N)=O)NC(C)=O)C(=O)N[C@@H](CC(=O)O)C(=O)N1CCC[C@H]1C(=O)NCC(N)=O, flank added to the 11-residue stretch (surmised: last residue of the library's constant GQSGQ); CLIP2, human, around pY972, natural variant R977P; flank added to the 11-residue stretch (surmised: first residue of the library's constant GGQSG); source: synthetic peptide (SynPeptide, China)) [CLIP2 pY972 R977P] | 27 nM

Reference: doi:10.1101/2024.12.23.630085, “Accurate sequence-to-affinity models for SH2 domains from multi-round peptide binding assays coupled with free-energy regression” (bioRxiv, 2025)
